Experiment [1] concerns the target T1, recombinant human CD73 protein (human, UniProt P21589 27-547, limits assumed).
T1 construct: Bought recombinant protein; the assays only say recombinant human CD73; also called rhCD73; recombinant hCD73 protein
T1 sequence (looked up): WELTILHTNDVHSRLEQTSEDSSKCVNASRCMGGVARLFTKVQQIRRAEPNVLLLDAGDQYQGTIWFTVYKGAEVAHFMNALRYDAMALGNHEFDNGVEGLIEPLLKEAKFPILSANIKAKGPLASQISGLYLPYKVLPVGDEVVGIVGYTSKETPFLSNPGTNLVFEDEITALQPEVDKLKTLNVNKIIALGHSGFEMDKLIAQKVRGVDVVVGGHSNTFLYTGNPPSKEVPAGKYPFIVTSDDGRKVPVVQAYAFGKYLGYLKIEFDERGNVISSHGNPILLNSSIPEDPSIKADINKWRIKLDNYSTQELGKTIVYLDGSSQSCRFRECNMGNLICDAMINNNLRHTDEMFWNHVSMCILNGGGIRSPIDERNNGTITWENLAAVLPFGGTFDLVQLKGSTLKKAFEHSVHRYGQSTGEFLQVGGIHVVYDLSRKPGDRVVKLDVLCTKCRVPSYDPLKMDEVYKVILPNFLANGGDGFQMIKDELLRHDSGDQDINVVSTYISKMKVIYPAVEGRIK
The experiment in a line: ELISA, recombinant human CD73. Background: In an ELISA, binding on a coated surface is turned into a signal by an enzyme label.

In experiment [2] the target is T2, recombinant monkey CD73 protein (monkey, UniProt A0A2K5V5U7 27-549).
T2 construct: Monkey species not further named for the recombinant protein (the cell line is called cynoCD73)
T2 sequence: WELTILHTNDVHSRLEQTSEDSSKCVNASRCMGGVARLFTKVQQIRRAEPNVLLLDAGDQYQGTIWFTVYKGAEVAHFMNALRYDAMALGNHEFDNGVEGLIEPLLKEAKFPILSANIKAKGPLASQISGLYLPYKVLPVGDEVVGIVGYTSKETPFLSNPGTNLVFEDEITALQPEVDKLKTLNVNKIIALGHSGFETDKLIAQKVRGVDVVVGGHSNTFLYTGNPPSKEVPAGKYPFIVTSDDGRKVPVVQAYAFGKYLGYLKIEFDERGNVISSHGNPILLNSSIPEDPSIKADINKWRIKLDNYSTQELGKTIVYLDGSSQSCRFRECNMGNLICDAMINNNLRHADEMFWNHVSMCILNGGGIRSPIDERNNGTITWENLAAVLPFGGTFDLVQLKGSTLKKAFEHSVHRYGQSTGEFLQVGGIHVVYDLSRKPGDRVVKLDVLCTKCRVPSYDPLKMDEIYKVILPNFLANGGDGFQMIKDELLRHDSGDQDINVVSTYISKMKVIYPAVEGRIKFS
In words: ELISA, recombinant monkey CD73.

Experiment [3] addresses T3, human CD73 on SK-OV-3 cells (human ovarian adenocarcinoma cells) (human, UniProt P21589 27-549).
T3 construct: whole, on cells; also called human CD73 positive cells
T3 sequence (looked up): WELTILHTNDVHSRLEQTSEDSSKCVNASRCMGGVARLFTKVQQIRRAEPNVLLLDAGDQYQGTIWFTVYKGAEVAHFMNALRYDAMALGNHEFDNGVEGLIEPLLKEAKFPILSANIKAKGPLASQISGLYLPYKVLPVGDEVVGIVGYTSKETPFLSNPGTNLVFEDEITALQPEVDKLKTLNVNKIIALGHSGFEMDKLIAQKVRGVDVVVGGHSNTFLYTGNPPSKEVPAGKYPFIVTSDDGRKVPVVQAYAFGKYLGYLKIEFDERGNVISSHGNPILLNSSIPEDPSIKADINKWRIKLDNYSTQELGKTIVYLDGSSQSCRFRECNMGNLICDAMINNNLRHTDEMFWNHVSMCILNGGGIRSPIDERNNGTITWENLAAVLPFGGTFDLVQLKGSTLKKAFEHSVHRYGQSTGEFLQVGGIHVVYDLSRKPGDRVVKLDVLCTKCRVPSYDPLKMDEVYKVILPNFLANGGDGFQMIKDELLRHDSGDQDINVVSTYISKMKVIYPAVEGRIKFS
The experiment in a line: flow cytometry on SK-OV-3 cells. (Flow cytometry measures light scatter and fluorescence of single cells or particles in a stream.)

For experiment [4], the target named is T4, monkey CD73 on CHOK1-cynoCD73 cells (monkey, UniProt A0A2K5V5U7 27-549, GPI anchor at the C-terminus of the mature chain (paragraph 3 says CD73 is GPI-anchored). The propeptide 550-574 is removed.).
T4 construct: also called CHOK1-cyno73 cells; monkey CD73 positive cells
T4 sequence: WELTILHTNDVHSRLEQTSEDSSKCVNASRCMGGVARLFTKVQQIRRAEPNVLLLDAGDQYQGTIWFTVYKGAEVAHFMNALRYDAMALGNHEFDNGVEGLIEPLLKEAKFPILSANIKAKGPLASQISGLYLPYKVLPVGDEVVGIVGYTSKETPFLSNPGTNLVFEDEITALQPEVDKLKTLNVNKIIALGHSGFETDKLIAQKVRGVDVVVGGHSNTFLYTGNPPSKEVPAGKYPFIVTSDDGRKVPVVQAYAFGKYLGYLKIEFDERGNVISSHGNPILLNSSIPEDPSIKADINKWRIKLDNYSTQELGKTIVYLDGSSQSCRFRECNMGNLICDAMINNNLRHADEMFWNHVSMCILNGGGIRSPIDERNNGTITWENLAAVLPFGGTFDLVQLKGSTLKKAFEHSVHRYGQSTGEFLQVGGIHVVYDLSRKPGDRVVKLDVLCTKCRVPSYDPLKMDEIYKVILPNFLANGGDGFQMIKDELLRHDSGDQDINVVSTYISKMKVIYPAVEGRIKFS
In words: flow cytometry on CHOK1-cynoCD73 cells.

Experiment [5] has as its target T4, monkey CD73 on CHOK1-cynoCD73 cells. In words: flow cytometry on CHOK1-cynoCD73 cells. The source holds these as a separate data set.
Experiment [6] deals with T3, human CD73 on SK-OV-3 cells (human …). The experiment in a line: flow cytometry on SK-OV-3 cells, anti-hFc-APC.
Experiment [7] deals with T1, recombinant human CD73 protein. In words: ELISA, recombinant human CD73 coated at 3 ug/mL.

B1: humanized CQ137 monoclonal antibody (137-5) (antibody, V domains shown)
VH: QVQLVQSGAEVKKPGSSVKVSCKASGYSFTGYYIHWVRQAPGQGLEWMGRINPYNGATTYNQNFKDRVTITVDKSTSTAYMELSSLRSEDTAVYYCARFHYGAADYWGQGTLVTVSS
VL: DIQMTQSPSSLSASVGDRVTITCKASQDINTYLTWYQQKPGKAPKTLIYRANILVDGVPSRFSGSGSGTDFTLTISSLQPEDFATYYCLQYNEFPLTFGGGTKVEIKR
For B1, the EC50 in experiment [1] is 0.387 µg/mL; in experiment [2] it was 0.734 µg/mL; in experiment [3] it was 0.0234 µg/mL; in experiment [4], 0.0154 µg/mL. For the same molecule, the 50% effective concentration (EC50 (read off the curve)) in experiment [5] and in experiment [6] was roughly 0.02 µg/mL each time.

B2: humanized CQ137 monoclonal antibody (137-7) (antibody, V domains shown)
VH: QVQLVQSGAEVKKPGSSVKVSCKASGYSFTGYYIHWVRQAPGQGLEWMGRINPYNGATTYNQNFKDRVTITVDKSTSTAYMELSSLRSEDTAVYYCARFHYGAPNYWGQGTLVTVSS
VL: DIQMTQSPSSLSASVGDRVTITCKASQDINTYLTWYQQKPGKAPKTLIYRANILVDGVPSRFSGSGSGTDFTLTISSLQPEDFATYYCLQYDDFPLTFGGGTKVEIKR
On to B2, for which the EC50 in experiment [1] amounted to 0.5 µg/mL; in experiment [2], 6.57 µg/mL; in experiment [3], 0.0301 µg/mL; in experiment [4] it was 0.0239 µg/mL. Further, the “EC50 (read off the curve)” value in experiment [5] was roughly 0.02 µg/mL.

B3: humanized CQ137 monoclonal antibody (137-9) (antibody, V domains shown)
VH: QVQLVQSGAEVKKPGSSVKVSCKASGYSFTGYYIHWVRQAPGQGLEWMGRINPYNGATTYNQNFKDRVTITVDKSTSTAYMELSSLRSEDTAVYYCARFHYGAPDLWGQGTLVTVSS
VL: DIQMTQSPSSLSASVGDRVTITCKASQDINTYLTWYQQKPGKAPKTLIYRANILVDGVPSRFSGSGSGTDFTLTISSLQPEDFATYYCLQYDAFPLTFGGGTKVEIKR
As to B3, the EC50 amounted to 0.446 µg/mL in experiment [1], 3.76 µg/mL in experiment [2], 0.0331 µg/mL in experiment [3] and 0.0193 µg/mL in experiment [4]. The “EC50 (read off the curve)” value in experiment [5] is roughly 0.02 µg/mL; in experiment [6] it was roughly 0.03 µg/mL; in experiment [7], roughly 0.4 µg/mL.

B4: humanized CQ137 monoclonal antibody (137-8) (antibody, V domains shown)
VH: QVQLVQSGAEVKKPGSSVKVSCKASGYSFTGYYIHWVRQAPGQGLEWMGRINPYNGATTYNQNFKDRVTITVDKSTSTAYMELSSLRSEDTAVYYCARFHYGAPDFWGQGTLVTVSS
VL: DIQMTQSPSSLSASVGDRVTITCKASQDINTYLTWYQQKPGKAPKTLIYRANILVDGVPSRFSGSGSGTDFTLTISSLQPEDFATYYCLQYDQFPLTFGGGTKVEIKR
As for B4, the EC50 amounted to 0.312 µg/mL in experiment [1], 3.76 µg/mL in experiment [2], 0.00487 µg/mL in experiment [3] and 0.00782 µg/mL in experiment [4]. Moreover, the figures for the “EC50 (read off the curve)” value in experiment [5], in experiment [6] and in experiment [7] were roughly 0.008 µg/mL, roughly 0.005 µg/mL and roughly 0.3 µg/mL, respectively.

A word on the EC50: it is the concentration that produces a half-maximal response. A word on the EC50 (read off the curve): it is the concentration needed to bring the measured effect to its halfway point.

These data come from US20240174763A1 (NOVOPROTEIN SCIENTIFIC, published 2024).
